Experimental data published in patent publication US20110239327A1, “Nematicidal Effects of Cysteine Proteinases and Methods of Use Thereof to Treat Nematode Infestation” (priority 2007, published 2011).

Tests used:
Heterorhabditis megidis = experiment: In vitro effect on the beneficial nematode Heterorhabditis megidis; assay type: cell-based
Method: (§1) Eggs of M. incognita race 1 from North Carolina State University, USA were collected from tomato-infected roots grown in a glasshouse at 23° C. in a 16:8 h light-dark regime. Eggs were extracted using 1% hypochlorite (NaClO) solution (Hussey and Barker, 1973) or by picking egg masses from tomato-infected roots. Juveniles (J2) were hatched from the eggs and egg masses in water. Heterodera glycines eggs were obtained from soil samples stored in Rothamsted-Research. Second stage juveniles (J2) were hatched from the eggs in water after 10 days. Pratylenchus penetrans were a gift from Dr. Deeren Anne-Marie from the Institute for Agricultural and Fisheries Research, Merelbeke, Belgium. The beneficial nematodes Steinernema feltiae and Heterorhabditis megidis were a gift from Dr. Paul Williams from Becker Underwood.
Control wells were set up which contained J2s and distilled water with 16 mM L-cysteine. Each enzyme concentration and the controls were set up in duplicate (i.e. n=2). The actual number of active J2s per well was counted with the aid of an Olympus inverted microscope, prior to the addition of the enzymes, and then the J2s were incubated in the dark at room temperature for 2 hs, 16 hs, 24 hs or 40 hr. The number of live and dead J2s per well was counted after each enzyme incubation. The same procedure was followed when setting up further experiments to compare the effects of these enzymes with Heterodera glycines J2, Pratylenchus penetrans, Steinernema feltiae and Heterorhabditis megidis.
The beneficial nematodes Hetorhabditis megidis and Steinernema feltiae were incubated with dilutions of actinidin, bromelain and pappain from papaya latex (see concentrations used in table 3). These nematodes reacted differentially to these cysteine proteinases (Tables 4 and 5). […] S. feltiae were dead at all concentrations of actinidin tested. […] After 16 hs of observation the enzyme solutions were diluted with water (to half of the initial concentrations) however, no change in nematode movement was observed after 24 hs.

M. incognita J2 = experiment: In planta bioassay, two soil applications: nematode infection of tomato roots; assay type: in vivo, M. incognita on tomato plants; conditions: two soil applications of enzyme (250 μM papain, 2.2 μM bromelain, 3.3 mM actinidin as printed), soil 16% organic matter, 11 days
Method: Oxamyl is supplied as 10% liquid Vydate. 125 μl of a solution 1000 fold dilution of 10% formulation (kindly supplied by DK from NIU) was applied to 5 g of the soil mixture with 16% organic matter, to give a partial nematicidal effect. Soil mixtures were wetted with PBS pH 7.2, 16 hrs prior nematode application of 1000 or 2000 M. incognita J2. Infected soil mixtures were treated with water (control) or 250 μM of active papain in 16 mM of L-cysteine or a combination of Vydate and 250 μM of active papain in 16 mM of L-cysteine. After 48 hs tomato seedlings one month old were added to the treated soils. After 11 days the roots were washed free of soil and chopped to approximately 2 mm pieces. The root pieces of each tomato plant was placed in muslin bags and stained with acid-fuchsin. The stained roots were examined under microscope and all the nematodes present in the roots were counted. […] After 48 hours tomato seedlings one month old were added to the treated soils and after 11 days post infection nematode development inside root tissues was assessed as described above.
The avermectins are macrocyclic lactones produced by the actinomycete Streptomyces avermitilis. […] After 48 hs tomato seedlings one month old were added to the treated soils and after 11 days post infection nematode development inside root tissues was assessed as described above. […]

Pratylenchus penetrans = experiment: In vitro live/dead count of Pratylenchus penetrans; assay type: cell-based; design: concentration of papain latex that killed the nematodes: unit not given here
Method: as §1
Control wells were set up which contained J2s and distilled water with 16 mM L-cysteine. Each enzyme concentration and the controls were set up in duplicate (i.e. n=2). […] The number of live and dead J2s per well was counted after each enzyme incubation. The same procedure was followed when setting up further experiments to compare the effects of these enzymes with Heterodera glycines J2, Pratylenchus penetrans, Steinernema feltiae and Heterorhabditis megidis.

B1: papain (protein, UniProt P00784 134-345, looked up)
Papain: IPEYVDWRQKGAVTPVKNQGSCGSCWAFSAVVTIEGIIKIRTGNLNEYSEQELLDCDRRSYGCNGGYPWSALQLVAQYGIHYRNTYPYEGVQRYCRSREKGPYAAKTDGVRQVQPYNEGALLYSIANQPVSVVLEAAGKDFQLYRGGIFVGPCGNKVDHAVAAVGYGPNYILIKNSWGTGWGENGYIRIKRGTGNSYGVCGLYTSSFYPVKN
notes: cysteine proteinase from Carica papaya, Merops C01.001, Sigma P3125
effect on H. megidis (Heterorhabditis megidis; papain 15 μM): not affected anymore | movement of H. megidis (Heterorhabditis megidis; papain 62.4 μM): moving slowly | reduction of nematode infection of plants (M. incognita J2): 89% | concentration of papain latex that killed the nematodes (Pratylenchus penetrans): 62.504 | recovery of mobility (Pratylenchus penetrans; after 48 hs): no recovery of mobility
